Experimental data as given in paper PMC10897455, “TMEM25 is a Par3-binding protein that attenuates claudin assembly during tight junction development” (EMBO Reports, 2023).

Biological target: the molecule itself
Experiment: pull-down; GST- and MBP-tagged TMEM25-ECR incubated for 1 h at 4 °C in 150 mM NaCl, 0.1% Triton X-100, 20 mM Tris-HCl pH 7.6; glutathione-Sepharose beads; CBB staining or anti-MBP immunoblot

B1: TMEM25-ECR (residues 27–220), GST- or MBP-tagged (domain or fragment, human, UniProt Q86YD3 27-220, looked up)
chain: ELEPQIDGQTWAERALRENERHAFTCRVAGGPGTPRLAWYLDGQLQEASTSRLLSVGGEAFSGGTSTFTVTAHRAQHELNCSLQDPRSGRSANASVILNVQFKPEIAQVGAKYQEAQGPGLLVVLFALVRANPPANVTWIDQDGPVTVNTSDFLVLDAQNYPWLTNHTVQLQLRSLAHNLSVVATNDVGVTSAS
notes: extracellular region (ECR), residues 27–220; bacterially expressed, non-glycosylated; also called GST–TMEM25-ECR; MBP–TMEM25-ECR; source: E. coli BL21, purified (glutathione-Sepharose 4B or amylose resin)
binding result: binds
